± gives the uncertainty stated by the source.
Test: self-splicing fitness, log relative to wild type (ln ratio); higher = more splicing; Tetrahymena group I intron in knt gene, E. coli kanamycin selection, DiMSum; sequences stand for … in CUCUCU…GGAGGGAAAAGUUAUCAGGCAUGCACCUGGUAGCUAGUCUUUAAACCAAUAGAUUGCAUCGGUUUAAAAGGCAAGACCGUCAAAUUGCGGGAAAGGGGUCAACAGCCGUUCAGUACCAAGUCUCAGGGGAAACUUUGAGAUGGCCUUGCAAAGGGUAUGGUAAUAAGCUGACGGACAUGGUCCUAACCACGCAGCCAAGUCCUAAGUCAACAGAUCUUCUGUUGAUAUGGAUGCAGUUCACAGACUAAAUGUCGGUCGGGGAAGAUGUAUUCUUCUCAUAAGAUAUAGUCGGACCUCUCCUUAAUGGGAGCUAGCGGAUGAAGUGAUGCAACACUGGAGCCGCUGGGAACUAAUUUGUAUGCGAAAGUAUAUUGAUUAGUUUUGGAGUACUCGUGGUCG
Summary of the method: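 Colonies from six replicate transformations of E. coli BL21(DE3) were pooled and amplicon-sequenced on an Illumina HiSeq 2500. The library placed an intron with all eight P1ex-region nucleotides randomised inside the knt kanamycin-resistance gene on pET-22b(+), and cells grew overnight at 37°C or 30°C on LB agar with or without 25 μg/mL kanamycin (plus 100 μg/mL carbenicillin, 50 μM IPTG, 0.2% rhamnose). Fitness is the DiMSum error-weighted combination of wild-type-normalised replicate fold changes, kanamycin versus none.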

| Sequence | self-splicing fitness (ln) (30 °C) | self-splicing fitness (ln) (37 °C) |
| --- | --- | --- |
| CUACAGCAAUAUUACGAGUU | -4.98 ± 0.2 | -2.76 ± 0.17 |
| CUACAGCAAUAUUACGCAUA | -3.32 ± 0.24 | -2.28 ± 0.2 |
| CUACAGCAAUAUUACGCCCC | -2.86 ± 0.41 | -1.4 ± 0.35 |
| CUACAGCAAUAUUACGCUAG | -3.58 ± 0.18 | -2.36 ± 0.23 |
| CUACAGCAAUAUUACGCUGU | -3.9 ± 0.2 | -2.8 ± 0.22 |
| CUACAGCAAUAUUACGCUUG | -2.37 ± 0.15 | -2.26 ± 0.16 |
| CUACAGCAAUAUUACGGCUC | -3.53 ± 0.23 | -1.8 ± 0.31 |
| CUACAGCAAUAUUACGGUAG | -3.39 ± 0.15 | -3.06 ± 0.23 |
| CUACAGCAAUAUUACGGUCA | -3.37 ± 0.28 | -1.96 ± 0.24 |
| CUACAGCAAUAUUACGUAAG | -1.14 ± 0.068 | -0.424 ± 0.092 |
| CUACAGCAAUAUUACGUACG | -0.289 ± 0.088 | 0.18 ± 0.099 |
| CUACAGCAAUAUUACGUCAC | -3.35 ± 0.36 | -2.13 ± 0.18 |
| CUACAGCAAUAUUACGUCGU | -3.3 ± 0.35 | -2.83 ± 0.25 |
| CUACAGCAAUAUUACGUGCC | -2.73 ± 0.26 | -2.39 ± 0.38 |
| CUACAGCAAUAUUACGUGGA | -2.58 ± 0.12 | -3.11 ± 0.21 |
| CUACAGCAAUAUUACGUUAC | -4.4 ± 0.26 | -3.72 ± 0.33 |
| CUACAGCAAUAUUACGUUAU | -3.96 ± 0.13 | -2.79 ± 0.15 |
| CUACAGCAAUAUUACGUUUG | -0.766 ± 0.04 | -0.34 ± 0.06 |
| CUAGAGCAAUAUUACGACAC | -3.9 ± 0.39 | -2.63 ± 0.48 |
| CUAGAGCAAUAUUACGACUC |  | -1.39 ± 0.48 |
| CUAGAGCAAUAUUACGCCAC |  | -3.44 ± 0.47 |
| CUAGAGCAAUAUUACGCCUA | -2.2 ± 0.14 | -1.15 ± 0.12 |
| CUAGAGCAAUAUUACGCGCC | -2.12 ± 0.38 |  |
| CUAGAGCAAUAUUACGCGCU | -3.47 ± 0.23 | -2.19 ± 0.27 |
| CUAGAGCAAUAUUACGCUAG | -3.78 ± 0.34 | -2.49 ± 0.28 |

| Sequence | self-splicing fitness (ln) (30 °C) | self-splicing fitness (ln) (37 °C) |
| --- | --- | --- |
| CUAGAGCAAUAUUACGCUUG | -3.03 ± 0.21 | -1.83 ± 0.23 |
| CUAGAGCAAUAUUACGGCAU | -3.75 ± 0.19 | -2.75 ± 0.28 |
| CUAGAGCAAUAUUACGGCUG | 0.203 ± 0.11 | -0.255 ± 0.14 |
| CUAGAGCAAUAUUACGGUCA | -3.55 ± 0.23 | -2.47 ± 0.44 |
| CUAGAGCAAUAUUACGGUUA | -3.66 ± 0.24 | -3.14 ± 0.4 |
| CUAGAGCAAUAUUACGUAAG | -0.628 ± 0.06 | 0.154 ± 0.089 |
| CUAGAGCAAUAUUACGUACC | -4.52 ± 0.24 | -3.09 ± 0.35 |
| CUAGAGCAAUAUUACGUGCC | -2.84 ± 0.24 | -1.41 ± 0.24 |
| CUAGAGCAAUAUUACGUUCC |  | 0.291 ± 0.28 |
| CUAGAGCAAUAUUACGUUGC | -3.14 ± 0.32 | -2.18 ± 0.44 |
| CUAGAGCAAUAUUACGUUGG | -1.71 ± 0.11 | -0.638 ± 0.13 |
| CUAGAGCAAUAUUACGUUUC | -4.04 ± 0.31 | -2.01 ± 0.28 |
| CUAGAGCAAUAUUACGUUUG | -1.33 ± 0.088 | -0.528 ± 0.1 |
| CUAUAGCAAUAUUACGAACU | -3.67 ± 0.43 |  |
| CUAUAGCAAUAUUACGAAUC | -2.05 ± 0.36 | -1.9 ± 0.33 |
| CUAUAGCAAUAUUACGAAUG | -0.481 ± 0.087 | 0.0255 ± 0.12 |
| CUAUAGCAAUAUUACGACAU | -4.157 ± 0.031 | -3.08 ± 0.045 |
| CUAUAGCAAUAUUACGACUU | -2.98 ± 0.3 | -1.54 ± 0.34 |
| CUAUAGCAAUAUUACGAUGU | -3.67 ± 0.4 | -3.04 ± 0.43 |
| CUAUAGCAAUAUUACGCAUA | -3.93 ± 0.29 | -2.68 ± 0.24 |
| CUAUAGCAAUAUUACGCGAA | -3.27 ± 0.2 | -3.06 ± 0.33 |
| CUAUAGCAAUAUUACGCGCG | -0.981 ± 0.2 | 0.458 ± 0.25 |
| CUAUAGCAAUAUUACGCGUC | -3.97 ± 0.34 | -2.71 ± 0.25 |
| CUAUAGCAAUAUUACGUAAC | -1.97 ± 0.42 |  |
